# Source: patent publication US20080108569
# Biological target: 6His-tagged human Akt1, P31749
# Sequence (P31749 whole entry, looked up): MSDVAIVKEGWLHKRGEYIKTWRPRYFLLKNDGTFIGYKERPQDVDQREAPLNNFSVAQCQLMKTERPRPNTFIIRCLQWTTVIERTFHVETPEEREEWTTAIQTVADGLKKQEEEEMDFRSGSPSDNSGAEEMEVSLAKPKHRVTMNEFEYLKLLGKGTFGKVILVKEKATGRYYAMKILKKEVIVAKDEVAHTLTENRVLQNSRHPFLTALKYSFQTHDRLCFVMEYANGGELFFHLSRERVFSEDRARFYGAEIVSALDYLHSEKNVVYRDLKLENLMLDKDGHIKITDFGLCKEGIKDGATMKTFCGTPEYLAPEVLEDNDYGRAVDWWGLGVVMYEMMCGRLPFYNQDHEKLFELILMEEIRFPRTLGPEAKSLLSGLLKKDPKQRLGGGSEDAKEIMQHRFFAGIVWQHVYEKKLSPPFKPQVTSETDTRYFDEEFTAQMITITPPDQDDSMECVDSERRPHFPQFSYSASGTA
Protein,dephosphorylation of Ser 473 by immunoprecipitated enzyme,dephosphorylation of Thr 308 by immunoprecipitated enzyme,dephosphorylation of Ser 473 in 5 minutes (phospho-specific antibody),dephosphorylation of Thr 308 in 5 minutes (phospho-specific antibody)
HA-tagged full length PHLPP2 (protein) MGYPYDVPDYAMKRNGSRNCLNRRSRFGSRERDWLREDVKRGCVYLYGADTTTATTTTTTSSSSSSSSSSSDLHLVLCTVETPASEICAGEGRESLYLQLHGDLVRRLEPTERPLQIVYDYLSRLGFDDPVRIQEEATNPDLGCMIRFYGEKPCHMDRLDRILLSGIYNVRKGKTQLHKWAERLVVLCGTCLIVSSVKDCQTGKMHILPLVGGKIEEVKRRQYSLAFSSAGAQAQTYHVSFETLAEYQRWQRQASKVVSQRISTVDLSCYSLEEVPEHLFYSQDITYLNLRHNFMQLERPGGLDTLYKFSQLKGLNLSHNKLGLFPILLCEISTLTELNLSCNGFHDLPSQIGNLLNLQTLCLDGNFLTTLPEELGNLQQLSSLGISFNNFSQIPEVYEKLTMLDRVVMAGNCLEVLNLGVLNRMNHIKHVDLRMNHLKTMVIENLEGNKHITHVDLRDNRLTDLDLSSLCSLEQLHCGRNQLRELTLSGFSLRTLYASSNRLTAVNVYPVPSLLTFLDLSRNLLECVPDWACEAKKIEVLDVSYNLLTEVPVRILSSLSLRKLMLGHNHVQNLPTLVEHIPLEVLDLQHNALTRLPDTLFSKALNLRYLNASANSLESLPSACTGEESLSMLQLLYLTNNLLTDQCIPVLVGHLHLRILHLANNQLQTFPASKLNKLEQLEELNLSGNKLKTIPTTIANCKRLHTLVAHSNNISIFPEILQLPQIQFVDLSCNDLTEILIPEALPATLQDLDLTGNTNLVLEHKTLDIFSHITTLKIDQKPLPTTDSTVTSTFWSHGLAEMAGQRNKLCVSALAMDSFAEGVGAVYGMFDGDRNEELPRLLQCTMADVLLEEVQQSTNDTVFMANTFLVSHRKLGMAGQKLGSSALLCYIRPDTADPASSFSLTVANVGTCQAVLCRGGKPVPLSKVFSLEQDPEEAQRVKDQKAIITEDNKVNGVTCCTRMLGCTYLYPWILPKPHISSTPLTIQDELLILGNKALWEHLSYTEAVNAVRHVQDPLAAAKKLCTLAQSYGCQDNVGAMVVYLNIGEEGCTCEMNGLTLPGPVGFASTTTIKDAPKPATPSSSSGIASEFSSEMSTSEVSSEVGSTASDEHNAGGLDTALLPRPERRCSLHPTPTSGLFQRQPSSATFSSNQSDNGLDSDDDQPVEGVITNGSKVEVEVDIHCCRGRDLENSPPLIESSPTLCSEEHARGSCFGIRRQNSVNSGMLLPMSKDRMELQKSPSTSCLYGKKLSNGSIVPLEDSLNLIEVATEVPKRKTGYFAAPTQMEPEDQFVVPHDLEEEVKEQMKQHQDSRLEPEPHEEDRTEPPEEFDTAL,60+4% dephosphorylation of Ser 473,no significant effect on Thr 308 phosphorylation,–,–
GST-tagged PP2C domain of PHLPP2 (protein) TSTFWSHGLAEMAGQRNKLCVSALAMDSFAEGVGAVYGMFDGDRNEELPRLLQCTMADVLLEEVQQSTNDTVFMANTFLVSHRKLGMAGQKLGSSALLCYIRPDTADPASSFSLTVANVGTCQAVLCRGGKPVPLSKVFSLEQDPEEAQRVKDQKAIITEDNKVNGVTCCTRMLGCTYLYPWILPKPHISSTPLTIQDELLILGNKALWEHLSYTEAVNAVRHVQDPLAAAKKLCTLAQSYGCQDNVGAMV,–,–,82+6% (Ser 473),70+2% (Thr 308)
